Patent US20210309984

Tested on: MUC5AC within type II porcine stomach mucin extract

## SsIE (residues 90-1520), E. coli strain W
  immunoblot of MUC5AC degradation in type II mucin extract: MUC5AC was processed into a different ˜60 kDa species
  immunoblot of MUC5AC degradation, in the presence of EDTA: no activity was detected

## ChiA C-domain (ChiA-CTD: residues 419-762), wild-type
  immunoblot of MUC5AC degradation, in the presence of EDTA: no activity was detected
